Article PMC2856694

Target: T1, gp96 from normal mouse organs (mouse (endogenous in mouse organs)), P08113
T1 chain: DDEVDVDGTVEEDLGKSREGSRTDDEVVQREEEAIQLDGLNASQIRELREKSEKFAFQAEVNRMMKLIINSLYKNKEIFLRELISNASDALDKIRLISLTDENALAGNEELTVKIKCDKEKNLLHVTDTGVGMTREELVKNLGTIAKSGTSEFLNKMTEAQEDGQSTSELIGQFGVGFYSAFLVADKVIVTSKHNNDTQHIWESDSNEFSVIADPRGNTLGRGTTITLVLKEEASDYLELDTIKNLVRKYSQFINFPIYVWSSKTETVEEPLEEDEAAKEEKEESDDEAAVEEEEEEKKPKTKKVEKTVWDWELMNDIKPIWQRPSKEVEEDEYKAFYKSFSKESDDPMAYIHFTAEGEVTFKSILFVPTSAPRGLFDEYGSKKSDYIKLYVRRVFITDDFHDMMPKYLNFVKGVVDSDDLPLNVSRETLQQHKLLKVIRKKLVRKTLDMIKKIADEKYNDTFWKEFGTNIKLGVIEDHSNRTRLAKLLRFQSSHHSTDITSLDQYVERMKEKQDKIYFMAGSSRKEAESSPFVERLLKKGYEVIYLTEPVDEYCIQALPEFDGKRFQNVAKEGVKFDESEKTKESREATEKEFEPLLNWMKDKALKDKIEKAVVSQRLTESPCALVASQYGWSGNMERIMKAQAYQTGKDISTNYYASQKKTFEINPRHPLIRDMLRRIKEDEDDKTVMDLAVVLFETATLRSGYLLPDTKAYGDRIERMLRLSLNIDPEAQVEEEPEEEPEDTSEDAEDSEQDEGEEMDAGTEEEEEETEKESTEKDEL
Test: non-reducing SDS-PAGE with immunoblot
Conditions: remark: other sources report otherwise

percent of total gp96 migrating at ~200 kDa (disulfide-linked dimer): < 50%
B1: gp96 from normal mouse organs, P08113 22-802 (natural protein)
chain: DDEVDVDGTVEEDLGKSREGSRTDDEVVQREEEAIQLDGLNASQIRELREKSEKFAFQAEVNRMMKLIINSLYKNKEIFLRELISNASDALDKIRLISLTDENALAGNEELTVKIKCDKEKNLLHVTDTGVGMTREELVKNLGTIAKSGTSEFLNKMTEAQEDGQSTSELIGQFGVGFYSAFLVADKVIVTSKHNNDTQHIWESDSNEFSVIADPRGNTLGRGTTITLVLKEEASDYLELDTIKNLVRKYSQFINFPIYVWSSKTETVEEPLEEDEAAKEEKEESDDEAAVEEEEEEKKPKTKKVEKTVWDWELMNDIKPIWQRPSKEVEEDEYKAFYKSFSKESDDPMAYIHFTAEGEVTFKSILFVPTSAPRGLFDEYGSKKSDYIKLYVRRVFITDDFHDMMPKYLNFVKGVVDSDDLPLNVSRETLQQHKLLKVIRKKLVRKTLDMIKKIADEKYNDTFWKEFGTNIKLGVIEDHSNRTRLAKLLRFQSSHHSTDITSLDQYVERMKEKQDKIYFMAGSSRKEAESSPFVERLLKKGYEVIYLTEPVDEYCIQALPEFDGKRFQNVAKEGVKFDESEKTKESREATEKEFEPLLNWMKDKALKDKIEKAVVSQRLTESPCALVASQYGWSGNMERIMKAQAYQTGKDISTNYYASQKKTFEINPRHPLIRDMLRRIKEDEDDKTVMDLAVVLFETATLRSGYLLPDTKAYGDRIERMLRLSLNIDPEAQVEEEPEEEPEDTSEDAEDSEQDEGEEMDAGTEEEEEETEKESTEKDEL
